In the nanobody polyreactivity screen of Harvey et al. (2022):

Assay: yeast display, Sf9 membrane polyspecificity reagent, FACS + sequencing; frameworks hold sequencing errors
Summary of the method: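 Polyreactivity labels are assigned by the sorting gate from which each nanobody was recovered. The gates were low and high (top ~1%), set on anti-HA fluorescence for expression and streptavidin fluorescence for reagent binding. Before sorting, galactose-induced (36–48 hours) yeast display cells were stained for 1 hour at 4 °C with 10% biotinylated, detergent-solubilized Sf9 membrane reagent.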

| Sequence | polyreactivity (PSR sort gate) |
| --- | --- |
| QVQLVESGGGLVQAGGSLRLSCAASGRTFNDYTMGWYRQAPGKERELVAAISSSGVRTYYADSVKGRFTISRDNAKNTVYLQMNSLKPEDTAVYYAKRAGYDRRWTYDYWGQGTQVTVSS | high polyreactivity |
| QVQLVESGGGLVQAGGSLRLSCAASGRTFNFYAMGWYRQAPGKERELVATISGGVSTYYADSVKGRFTISRDNAKNTVYLQMNSLKPEDTAVYYCAKDSGYPQWDLDYWGQGTQVTVSS | high polyreactivity |
| QVQLVESGGGLVQAGGSLRLSCAASGRTFNGDAMGWYRQAPGKERELVAAISSSGGSTYYADSVKGRFTISRDNAKNTVYLQMNSLKPEDTAVYYCAARRANGFNYWGHGTQVTVSS | high polyreactivity |
| QVQLVESGGGLVQAGGSLRLSCAASGRTFNGNTMGWYRQAPGKERQLVAAISRNGGRTYYADSVKGRFTISRDNAKNTVYLQMNSLKPEDTAVYYCATVYRPGGVYGYWGQGTQVTVSS | high polyreactivity |
| QVQLVESGGGLVQAGGSLRLSCAASGRTFNGYAMGWYRQAPGKERELVAGISWRGTSTYYADSVKGRFTISRDNAKNTVYLQMNSLKPEDTAVYYCAADVWRVQHRGYNYWGQGTQVTVSS | high polyreactivity |
| QVQLVESGGGLVQAGGSLRLSCAASGRTFNGYVMGWYSQAPGKEREFVAVINWSGGNTYYADSVKGRFTISRDNAKNTVYLQMNSLKPEDTAVYYCAARRVRSYAYDYWGQGTQVTVSS | high polyreactivity |
| QVQLVESGGGLVQAGGSLRLSCAASGRTFNIYAMGWYRQAPGKERELVAAITWRSGSTYYADSVKGRFTISRDNAKNTVYLQMNSLTPEDTAVYYCAAEQWSCVPEFDYWGQGTQVTVSS | high polyreactivity |
| QVQLVESGGGLVQAGGSLRLSCAASGRTFNIYAMGWYRQAPGKVRELVAAISSGGSTYYADSVKGRFTISRDNAKNTVYLQMNSLKPEDTAVYYCAAVEFELRGDYWGQGTQVTVSS | low polyreactivity |
| QVQLVESGGGLVQAGGSLRLSCAASGRTFNPYVMGWYRQAPGKERELVARIRGSGTSTYYADSVKGRFTISRDNAKNTVYLHMNSLKPEDTAVYYCAAAQSKYSFYWGDYYYWGQGTQVTVSS | high polyreactivity |
| QVQLVESGGGLVQAGGSLRLSCAASGRTFNRNAMGWYRPAPGKERELVAAISWGGSRTYYADSVKGRFTISRDNAKNTVYLQMNSLKPEDTAVYYCAVDGFRGRSHGANDYWGQGTQVTVSS | high polyreactivity |
| QVQLVESGGGLVQAGGSLRLSCAASGRTFNRNAMGWYRQAPGKERELVAAISWGGSRTYYADSVKGRFTISRDNAKNTVYLQMNSLKPEDTAVYYCAVDGFRGRSHGANDYWGQGTQVTVSS | high polyreactivity |
| QVQLVESGGGLVQAGGSLRLSCAASGRTFNRNAMGWYRQAPGKERELVAAISWGGSRTYYADSVKGRFTISRDTAKNTVYLQMNSLKPEDTAVYYCAVDGFRGRSHGANDYWGQGTQVTVSS | high polyreactivity |
| QVQLVESGGGLVQAGGSLRLSCAASGRTFNRNTMGWYRQAPGKERELVAGITKRGGSTYYADSVKGRFTISRDNAKNTVYLQMNSLKPEDTAVYYCNAATNGSPPDYDYWGQGTQVNVSS | high polyreactivity |
| QVQLVESGGGLVQAGGSLRLSCAASGRTFNRYAMGWYRQAPGKERELVAAINSVGSTYYADSVKGRFPISRDNAKNTVYLQMNSLKPEDTAVYYCNAVQGSRFGYWGQGTQVTVSS | high polyreactivity |
| QVQLVESGGGLVQAGGSLRLSCAASGRTFNRYAMGWYRQAPGKERELVAAISYGGGRTYYADSVKGRFTISRDNAKNTVYLQMYSLKPEDTAVYYCNAVFGYQSPGGYDYWGQGTQVTVSS | high polyreactivity |
| QVQLVESGGGLVQAGGSLRLSCAASGRTFNSNAMGWYRQAPGKERELVAAISGRTGRTYYADSVKGRFTISRDNAKNTVYLQMNSLKPEDTAVYYCATGTYAAAQGTRYYYWGQGTQVTVSS | high polyreactivity |
| QVQLVESGGGLVQAGGSLRLSCAASGRTFNSYAMGWYRPAPGKERELVATISSRGGNTFYADSVKGRFTISRDYAKNTVYLQMNRLKPEDTAVYYCAKPGYLRPSRYDYWGQGTQVTVSS | high polyreactivity |
| QVQLVESGGGLVQAGGSLRLSCAASGRTFNTNAMGWYRQAPGKERELVAAITRSGDSTYYADSVKGRFTISRDNAKNTVYLQMNSLKPEDTAVYYCAAYSRTLYPDRYYWGHGTQVTVSS | high polyreactivity |
| QVQLVESGGGLVQAGGSLRLSCAASGRTFNTYTMGWYRQAPGKERELVAAITGTGGSTFYADSVKGRFTISRDNAKNTVYLQMNSLKPEDTAVYYCNADLEGTIGVYTDGFDSDYWGQGTQVTVSS | low polyreactivity |
| QVQLVESGGGLVQAGGSLRLSCAASGRTFNVNVMGWSRQAPGKERELVAAIRYTGGSTYADSVKGRFTISRDNAKNTVYLQMNSLKPEDTAVYYCNADTFFPFDHGMDYWGQGTQVTVSS | low polyreactivity |
| QVQLVESGGGLVQAGGSLRLSCAASGRTFNVNVMGWYRQAPGKERELVAAIRYTGGSTYADSVKGRFTISRDNAKNTVYLQMNSLKPEDTAVYYCNADTFFPFDHGMDYWGQGTQVTVSS | low polyreactivity |
| QVQLVESGGGLVQAGGSLRLSCAASGRTFNVYAMGWYRQAPGKERELVAGISSSGGSTYYADSVKGRFTISRDNAKNTVYLQMNSLKPEDTAVYYCNTVYKYHGVRPYGYWGQGTQVTVSS | high polyreactivity |

| Sequence | polyreactivity (PSR sort gate) |
| --- | --- |
| QVQLVESGGGLVQAGGSLRLSCAASGRTFNWNAMGWYRQAPGKERELVAAITSGGSTYNADSVKGLFTISRDNAKNTVYLQMNSLKPEDTAVYYCAGRINFYRSKYYYWGQGTQVTVSS | high polyreactivity |
| QVQLVESGGGLVQAGGSLRLSCAASGRTFNWYAMGWYRQAPGKERELVAAITQSGGITSYADSVKGRFTISRDNAKNTVYLQMNSLKPEDTAVYYCATTSRYSRSHYDWYDYWGQGTQVTVSS | low polyreactivity |
| QVQLVESGGGLVQAGGSLRLSCAASGRTFNYYAMGWYRQAPGKERELVAAISSRGGTYYADSVKGRFTISRDNAKNTVYLQMNSLKPEDTAVYYCNAVHYDTISDYWGQGTQVTVSS | high polyreactivity |
| QVQLVESGGGLVQAGGSLRLSCAASGRTFNYYVMGWYRRAPGKERELVAAITWRGGRTYADSVKGRFTISRDNAKNTVYLQMNSLKPEDTAVYYCAAYTTKGYGYWGQGTQVTVSS | high polyreactivity |
| QVQLVESGGGLVQAGGSLRLSCAASGRTFPAYAMGWYRQAPGKERELVAAISSSGSRTYYADSVKGRFTISRDNAKNTVYLQMNSLKPEDTAVYYCAARGGRRQKVNRDDYWGQGTQVTVSS | high polyreactivity |
| QVQLVESGGGLVQAGGSLRLSCAASGRTFPFYAMGWYRQAPGKERELVAAINSGGITNYADSVKGRFTISRDNAKNTVYLQMNSLKPEDTAVYYCAAKTAFYRERGYWGQGTQVTVSS | low polyreactivity |
| QVQLVESGGGLVQAGGSLRLSCAASGRTFPGNAMGWSRQAPGKERELVATITWSSGRTHYADSVKGRFTISRDNAKNTVYLQMNSLKPEDTAVYYCAAKWIVAVGGFYYWGQGTQVTVSS | low polyreactivity |
| QVQLVESGGGLVQAGGSLRLSCAASGRTFPGTAMGWYRQAPGKVRELVAAISSSGGSTHYADSVKGRFTISRDTAKNTVYYQMNSLKPEDTAVYYCNTVYAVWYKLDYWGQGTQVTVSS | high polyreactivity |
| QVQLVESGGGLVQAGGSLRLSCAASGRTFPGYAMGCYRQAPGKERELVATITFSDGSTYYADSVKGRFTISRDNAKITVYLQMNSLKPEDTAVYYCNARRSYFLRYGVNYWGQGTQVTVST | low polyreactivity |
| QVQLVESGGGLVQAGGSLRLSCAASGRTFPGYAMGWYRQAPGKERELVAAITSSGDDTYYADSVKGRFTISRDNAKNTVYLQMYSLKPEDTAVYYCRLFRRSADSSFDYEYWGQGTQVTVSS | low polyreactivity |
| QVQLVESGGGLVQAGGSLRLSCAASGRTFPGYAMGWYRQAPGKERELVATITGNGGSTYYADSVKGRFTISRDNAKNTVYLQMNSLKPEDTAVYYCAAGRRRPYVRAYRGTDYWGQGTQVTVSS | low polyreactivity |
| QVQLVESGGGLVQAGGSLRLSCAASGRTFPGYTMGWSRQAPGKERELVAAISYSGGSTYYADSVKGRFTISRDNAKNTVYLQMYSLKPEDTAVYYCAAAYDRQRRYSWVGERYYWGQGTQVTVSS | high polyreactivity |
| QVQLVESGGGLVQAGGSLRLSCAASGRTFPLNAMGWFRQAPGKERELVAAITWSGGRTYYADSVKGRFTISRDNAKNTVYLQMNSLKPEDTAVYYCAAKRTTWKIQSGYDYWGQGTQVTVSS | low polyreactivity |
| QVQLVESGGGLVQAGGSLRLSCAASGRTFPLYAMGWYRQAPGKERELVAAISWSGGSTYYADSVKGRFTISRDHAKNTVYLQMNSLKPEDTAVYYCNTLGRLTGRYGWSSKYYYWGQGTQVTVSS | high polyreactivity |
| QVQLVESGGGLVQAGGSLRLSCAASGRTFPPYAMGWYRQAPGKERELVAAIRWSGGDTYYADSVKGRFTISRDNAKNTVYLQMNSLKPEDTAVYYCNAVYYSYSYGYNYWGQGTQVTVSS | high polyreactivity |
| QVQLVESGGGLVQAGGSLRLSCAASGRTFPQYAMGWYRQAPGKERELVASITSRSGRTYYADSVKGRFTISRDNAKNTVYLQMNSLKPEDTAVYYCNAVSSWWYMNYWGQGTQVTVSS | high polyreactivity |
| QVQLVESGGGLVQAGGSLRLSCAASGRTFPRNAMGWYRQAPGKERELVAAISYGGGRTYYADSVKGRFTISRDNAKNTVYLQMNSLKPEDTAVYYCATVRRTDYPLGMDYWGQGTQVTVSS | high polyreactivity |
| QVQLVESGGGLVQAGGSLRLSCAASGRTFPRNAMGWYRQAPGKERELVAAISYGGGRTYYADSVKGRFTISRDYAKNTVYLQMNSLKPEDTAVYYCATVRRTDYPLGMDYWGHGTQVTVSS | high polyreactivity |
| QVQLVESGGGLVQAGGSLRLSCAASGRTFPRNGMGWYRPAPGQERELVAAIRYSGGSTYYADSVKGRFTISRDNAKNTVYLQMNSLKPEDTAVYYCAAEYRRALGVDYWGQGTQVTVSS | high polyreactivity |
| QVQLVESGGGLVQAGGSLRLSCAASGRTFPSYTMGWSRQAPGKERELVAAITWTGGSTYYADSVKGRFTISRDNAKNTVYLQMISLKPEDTAVYYCADYDYWGHGTQVTVSS | low polyreactivity |
| QVQLVESGGGLVQAGGSLRLSCAASGRTFPVNAMGGYRQAPGKERELVAVINWGGTSTYYADSVKGRFTISRDNAKNTVYLQMNSLKPEDTAVYYCAARARYPGVGYNYWGQGTQVTVSS | high polyreactivity |
